Changes are numbered by the printed parent chain. Names and notes keep the numbering of the source.
B1: E33A (designed binder)
chain: MTLQELLREEALRRAEAEAFRYALELLAEKFPAQKEYLLDLAEEIESQIRSLSGVDVEDVRKFLDKEWAWVKELLAEHPAELAEVEAARAARLAELRAEVEAKVAA
B2: R13V (designed binder)
chain: B1 chain with R13V, A33E
B3: E84T (designed binder)
chain: B1 chain with A33E, E84T
B4: L3C (designed binder)
chain: B1 chain with L3C, A33E
B5: D56R (designed binder)
chain: B1 chain with A33E, D56R
B6: Q34G (designed binder)
chain: B1 chain with A33E, Q34G
B7: L93M (designed binder)
chain: B1 chain with A33E, L93M
B8: V57G (designed binder)
chain: B1 chain with A33E, V57G
B9: K72V (designed binder)
chain: B1 chain with A33E, K72V
B10: V57M (designed binder)
chain: B1 chain with A33E, V57M
B11: A102C (designed binder)
chain: B1 chain with A33E, A102C
B12: A91M (designed binder)
chain: B1 chain with A33E, A91M
B13: A76S (designed binder)
chain: B1 chain with A33E, A76S
B14: R13T (designed binder)
chain: B1 chain with R13T, A33E
B15: L6R (designed binder)
chain: B1 chain with L6R, A33E
B16: I45Y (designed binder)
chain: B1 chain with A33E, I45Y
B17: E18M (designed binder)
chain: B1 chain with E18M, A33E
B18: H78D (designed binder)
chain: B1 chain with A33E, H78D
B19: E95M (designed binder)
chain: B1 chain with A33E, E95M
B20: R50W (designed binder)
chain: B1 chain with A33E, R50W
B21: A83W (designed binder)
chain: B1 chain with A33E, A83W
B22: V104W (designed binder)
chain: B1 chain with A33E, V104W
B23: E77L (designed binder)
chain: B1 chain with A33E, E77L
B24: E101V (designed binder)
chain: B1 chain with A33E, E101V
B25: E29M (designed binder)
chain: B1 chain with E29M, A33E
B26: L96H (designed binder)
chain: B1 chain with A33E, L96H
B27: A83L (designed binder)
chain: B1 chain with A33E, A83L
B28: F31T (designed binder)
chain: B1 chain with F31T, A33E
B29: M1V (designed binder)
chain: B1 chain with M1V, A33E
B30: Y22W (designed binder)
chain: B1 chain with Y22W, A33E
B31: V55W (designed binder)
chain: B1 chain with A33E, V55W
B32: A102R (designed binder)
chain: B1 chain with A33E, A102R
B33: E101T (designed binder)
chain: B1 chain with A33E, E101T
B34: A76L (designed binder)
chain: B1 chain with A33E, A76L
B35: E46W (designed binder)
chain: B1 chain with A33E, E46W
B36: T2R (designed binder)
chain: B1 chain with T2R, A33E
B37: F31C (designed binder)
chain: B1 chain with F31C, A33E
B38: L96T (designed binder)
chain: B1 chain with A33E, L96T
B39: K72Y (designed binder)
chain: B1 chain with A33E, K72Y
B40: A88L (designed binder)
chain: B1 chain with A33E, A88L
B41: A80D (designed binder)
chain: B1 chain with A33E, A80D
B42: V100F (designed binder)
chain: B1 chain with A33E, V100F
B43: W70I (designed binder)
chain: B1 chain with A33E, W70I
B44: A28M (designed binder)
chain: B1 chain with A28M, A33E
B45: E81N (designed binder)
chain: B1 chain with A33E, E81N
B46: A91E (designed binder)
chain: B1 chain with A33E, A91E
B47: A11T (designed binder)
chain: B1 chain with A11T, A33E
B48: A15P (designed binder)
chain: B1 chain with A15P, A33E
B49: E33S (designed binder)
chain: B1 chain with A33S
B50: A42D (designed binder)
chain: B1 chain with A33E, A42D
B51: V100N (designed binder)
chain: B1 chain with A33E, V100N
B52: T2E (designed binder)
chain: B1 chain with T2E, A33E
B53: E10D (designed binder)
chain: B1 chain with E10D, A33E
B54: A17D (designed binder)
chain: B1 chain with A17D, A33E
B55: A19N (designed binder)
chain: B1 chain with A19N, A33E
B56: A90Y (designed binder)
chain: B1 chain with A33E, A90Y
B57: A80C (designed binder)
chain: B1 chain with A33E, A80C
B58: F31W (designed binder)
chain: B1 chain with F31W, A33E
B59: A69G (designed binder)
chain: B1 chain with A33E, A69G

Target: T1, TNFR1 (Homo sapiens, UniProt P19438)
T1 chain: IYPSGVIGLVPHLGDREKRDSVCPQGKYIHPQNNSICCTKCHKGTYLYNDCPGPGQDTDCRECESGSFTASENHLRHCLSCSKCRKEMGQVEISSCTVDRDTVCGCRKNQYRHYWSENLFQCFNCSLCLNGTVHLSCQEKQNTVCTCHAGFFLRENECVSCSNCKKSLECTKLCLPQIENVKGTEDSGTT
Test: yeast display SC50

| Binder | apparent Kd (screen) [nM] |
| --- | --- |
| B1 | 0.208 |
| B2 | 0.335 |
| B3 | 0.49 |
| B4 | 12.5 |
| B5 | 2.25 |
| B6 | 0.593 |
| B7 | 0.539 |
| B8 | 1.86 |
| B9 | 0.593 |
| B10 | 2.48 |
| B11 | 0.539 |
| B12 | 0.869 |
| B13 | 0.49 |
| B14 | 0.335 |
| B15 | 12.5 |
| B16 | 1.86 |
| B17 | 0.49 |
| B18 | 0.593 |
| B19 | 0.446 |
| B20 | 2.73 |

| Binder | apparent Kd (screen) [nM] |
| --- | --- |
| B21 | 0.49 |
| B22 | 0.869 |
| B23 | 0.446 |
| B24 | 0.539 |
| B25 | 0.539 |
| B26 | 0.49 |
| B27 | 0.446 |
| B28 | 0.593 |
| B29 | 0.539 |
| B30 | 0.49 |
| B31 | 1.16 |
| B32 | 0.446 |
| B33 | 1.05 |
| B34 | 0.49 |
| B35 | 0.368 |
| B36 | 0.956 |
| B37 | 0.653 |
| B38 | 0.49 |
| B39 | 0.593 |
| B40 | 0.49 |

| Binder | apparent Kd (screen) [nM] |
| --- | --- |
| B41 | 0.49 |
| B42 | 0.49 |
| B43 | 13.8 |
| B44 | 9.41 |
| B45 | 0.539 |
| B46 | 0.593 |
| B47 | 0.593 |
| B48 | 2.73 |
| B49 | 0.49 |
| B50 | 1.86 |
| B51 | 0.593 |
| B52 | 2.73 |
| B53 | 0.539 |
| B54 | 0.79 |
| B55 | 0.446 |
| B56 | 0.718 |
| B57 | 0.49 |
| B58 | 1.16 |
| B59 | 0.653 |
